Results: patent publication US12611470B2, “Chromatin-opening element for stable long term gene expression” (CZ Biohub SF, LLC, priority 2019, dated 2026)

Test system: P19 cells
Assay: Lentiviral transduction silencing experiment, UCOE linked to CMV, EF1α, RSV or PGK promoter driving GFP
Assay type: cell-based, mouse
Excerpt: The graphs show the raw data of measured percent GFP positive cells (% GFP+) for each construct over time. Transduced populations were sorted into triplicate wells using FACS at day 0 (5 days after lentiviral transductions) to begin the study at 100% GFP positive cells. Expression is lost quickly within the first 10 days, and then stabilizes around day 15. Data is reported as mean±SD from biological triplicates. Two positive UCOE controls (A2UCOE, 3′UCOE) and a negative control (no insulator region) were used.
Percent GFP positive cells at the final timepoint (day 26 for CMV and RSV, day 27 for PGK and EF1α) of the lentivirus silencing experiment across the four tested promoters is plotted. P19 cells were FACS-sorted five days after transduction (day 0) and then assayed over a 26 or 27-day time period thereafter. Data is reported as mean±SD from three biological replicates.
Two plasmids (pCS3800: encoding HIV-1 Gag; pCS380: encoding VSVg envelope protein) were used with varying versions of the donor plasmid pCS3799. HEK293T cells were plated at 5×10^6 cells in a 10 cm dish. Twenty-four hours after plating, the three plasmids (10 μg donor, 8 μg pCS3800, 10 μg pCS3801) were co-transfected together using a calcium phosphate protocol (Zufferey, R. T. and Trono, D. (2001) Current Protocols in Human Genetics, 26 (1), 12.10.1-12.10.12; DOI: 10.1002/0471142905.hg1210s26 (55)). The total DNA was brought to 500 μL in water, to which 500 μL of 2×HEPES-buffered saline, pH7.0 (Alfa Aesar) was added and mixed. One-tenth of the total volume (100 μL) of 2.5 M calcium chloride (Sigma-Aldrich) was then added to the mixture, followed by a 20-minute incubation. The mixture was then added to the plate in a dropwise manner. Media was replaced six hours later, and the supernatant was collected at 48 hr after the transfection, filtered through 0.4 μm filter, and frozen at −80° C. in 1 mL aliquots. Lentiviral aliquots were thawed in a 37° C. bead bath before transductions.
P19 cells were plated at 20-30,000 cells/well in 12-well plates one day before transduction. Twenty-four hours after plating, cells were transduced at varying dilutions of the lentiviral stock (ranging from 1:2 to 1:100) in DMEM+10% FBS with 8 μg/mL polybrene (Santa Cruz Biotechnologies). Media was refreshed on P19 cells 24 hours after transduction, and cells were passaged and assayed through a MACSQuant® VYB flow cytometer (Miltenyi Biotec) 48 h after transduction. MOI was determined by reporter expression at this timepoint using the following formula: MOI=ln (1/1-p) where p is the % of cells that are GFP positive at 48 hours post-transduction (Chen, S. et al. (2015) Cell, 160, 1246-1260 (56)).
Cells were FACS-sorted on the BD Influx™ cell sorter at the Stanford FACS Facility using the 488-nm laser and 525/40 filter to assay GFP expression. After gating for singlets and viability, GFP+ gate was drawn to be <0.1% GFP positive in non-transduced P19 cells. GFP+ gates were re-drawn for each promoter set to avoid the ˜10% highest and lowest expressing cells within the GFP+ gate, but the same gate was used for every experimental condition under the same promoter. Triplicate wells of each population (12-15,000 cells/well in a 24-well plate) were collected.
Fluorescence data throughout silencing experiments was obtained using a MACSQuant® VYB flow cytometer (Miltenyi Biotec). EGFP was measured through the 488-nm laser and 525/50 nm band pass filter. Flow cytometry data was analyzed using the FlowJo™ single cell flow cytometry analysis software (Tree Star). After being gated for singlets and viability, GFP+ gates in FlowJo were drawn such that a non-transfected or non-transduced P19 cell population was at 1% GFP+. Median values reported are of cells within the GFP+ gate, both % GFP positive and median are reported with the standard deviation of biological replicates. […]

B1: Candidate 6: Full length SRF-UCOE, SEQ ID NO:1; region between human SURF1 and SURF2 including first introns, chr9 (nucleic acid, listed as Homo sapiens)
DNA: GCACACGACCACAATTCCACTGAAAGCATTTTAATACGGAACTTGTCACTCCCAGGGAGCCTCCGCTCAGCCGGCAGTTGGTTCATTTCAATCCCCACGACAACCCTTCAAAGTGCAGGGCAGACAGCAGGTGGCTCTGCCCAGGCGCCTGGATCACAGCCCGGCCTGCAGCCCTCACCTGGGCGCGGGGAGACCCTGAGGACGCTCCTCCAGGCGGCGCTGGCCGGGGCCTGCGGACACGGACGGGCGGGCTGAGCTCCGGGACCCCTCCCCGCGCCCCGCACCCCGCACCCCGCACCCCGCACCCCGCACCCGGCGCTCACCCGTCCCAGCCCCGCCGCCCGCAGCCCCAGCTGCAACGCAGCCACCGCCGCCATCGCACCCGGCCCCGCGGGCGCTTCCGGGACGCAGGAGGCATCTGCATCCGGGGCGCCGCTGAGTCCCGCCCAGAGCCCCGCCCCCGGCTCCAGGTTCTGCGAGCGGCTTCCGCCGGGCTGCTCCGCGGGCGCGTCGGCCATGAGCGAGTTGCCGGGCGACGTGCGGGCGTTTCTGCGGGAGCACCCGAGCCTGCGGCTCCAGACGGACGCCCGCAAGGTTCGCAGCGCGGGAGGGGAACGGAGTGGCGGAGAAGGGCGCAGTTGGGATGAGGGGCTGAGGGGAGGGCAGGGGAGAGGAGAGGGCAGGGGAGAGGGGAGAGGGGAGAGCAGGAGAGAGGGGAAGGCAGGGGAGAGGGCGCGGCGGGATCAGGGGAGGAGAGGGAAGGGGGCGCGGCAGGAGGGGGCACCAGGGAGCGGAGCCCTGGCCCTCCTGACGTCCTGCCCGCCCACGCGTCCGCAGGTGAGGTGCATCCTGACAGGTCACGAGCTGCCCTGCCGCCTGCCGGAGCTCCAGGTCTACACCCGCGGCAAAAAGTACCAGCGGCTGGTCCGCGCCTCCCCGGCCTTCGACTATGCAGAGTTCGAGCCGCACATCGTGCCCAGCACCAAGAACCCGTAGGTGGTC
Ef1α promoter, final timepoint
  GFP positive cells / expression compared to the negative control: 2.7 times
PGK promoter, day 27
  % GFP+ cells at final timepoint: 29%
  expressing cells / improvement over the negative control: 5 fold
RSV promoter, day 26
  % GFP+ cells at final timepoint: 76%
  % GFP+ cells, representative example (one biological replicate): 79.6%
